The record followed here is patent publication US20230322950A1 (Hoffmann-La Roche, published 2023).

Read-outs that look alike come from different tables or passages of the source.

In test [1] the target is T1, VH1VL1-CD8ATD-CD137CSD-CD3zSSD fusion.
T1 construct: Chimeric antigen receptor expressed on Jurkat NFAT reporter cells; also called VH1VL1 P329G-CAR
The test can be described thus: Jurkat NFAT luciferase reporter assay with CD20-positive WSUDLCL2 target cells (5:1); no reporter activation, which the filing uses to exclude unspecific binding.
Method: (§1) Binding of the CAR to an immobilized adapter molecule (e.g. a tumor antigen bound adapter molecule) leads to CAR crosslinking resulting in T cell activation and in the expression of luciferase. […] The 384 well plate was centrifuged for 1 min at 300g and RT and incubated at 37° C. and 5% CO₂ in a humidity atmosphere. After 7h incubation 20% of the final volume of ONE-Glo™ Luciferase Assay (E6120, Promega) was added, and plates were centrifuged for 1 min at 350×g. Afterwards, the relative luminescence units (RLU) per s/well were measured immediately using a Tecan microplate reader. Concentration-response curves were fitted and EC₅₀ values were calculated using GraphPadPrism version 7. As p value the New England Journal of Medicine style was used as listed in GraphPadPrism 7. Meaning*=P≤0,033; **=P≤0,002; ***=P≤0.001.

In test [2] the target is T2, VH2VL1-CD8ATD-CD137CSD-CD3zSSD fusion.
T2 construct: Chimeric antigen receptor expressed on Jurkat NFAT reporter cells; also called VH2VL1 P329G-CAR
The description is as above.
Method: as §1

Test [3] addresses T3, VL1VH3-CD8ATD-CD137CSD-CD3zSSD fusion.
T3 construct: Chimeric antigen receptor with the scFv in VL-VH order, expressed on Jurkat NFAT reporter cells; also called VL1VH3 P329G-CAR
The description is as above.
Method: as §1

The target in test [4] is T4, VH3VL1-CD8ATD-CD137CSD-CD3zSSD fusion.
T4 construct: also called VH3VL1 P329G-CAR
Described as above.
Method: as §1

Test [5] has as its target T1, VH1VL1-CD8ATD-CD137CSD-CD3zSSD fusion. In words: cell-based or functional assay.
For test [6], the target named is T2, VH2VL1-CD8ATD-CD137CSD-CD3zSSD fusion. The test can be described thus: cell-based or functional assay.
For test [7], the target named is T3, VL1VH3-CD8ATD-CD137CSD-CD3zSSD fusion. The test can be described thus: cell-based or functional assay.
The target of test [8] is T4, VH3VL1-CD8ATD-CD137CSD-CD3zSSD fusion. The test can be described thus: cell-based or functional assay.
Test [9] addresses T1, VH1VL1-CD8ATD-CD137CSD-CD3zSSD fusion. The test can be described thus: Jurkat NFAT luciferase reporter assay with CD20-positive WSUDLCL2 target cells (5:1); no reporter activation, which the filing uses to exclude unspecific binding. The source holds these as a separate data set.
Method: as §1
In test [10] the target is T2, VH2VL1-CD8ATD-CD137CSD-CD3zSSD fusion. Described as above. This is another data set of the same source.
Method: as §1
The target of test [11] is T3, VL1VH3-CD8ATD-CD137CSD-CD3zSSD fusion. Described as above. This is another data set of the same source.
Method: as §1
Test [12] deals with T4, VH3VL1-CD8ATD-CD137CSD-CD3zSSD fusion. Described as above. The source holds these as a separate data set.
Method: as §1
Test [13] deals with T1, VH1VL1-CD8ATD-CD137CSD-CD3zSSD fusion. In words: cell-based or functional assay. This is another data set of the same source.
Test [14] has as its target T2, VH2VL1-CD8ATD-CD137CSD-CD3zSSD fusion. In words: cell-based or functional assay. The source holds these as a separate data set.
In test [15] the target is T3, VL1VH3-CD8ATD-CD137CSD-CD3zSSD fusion. The test can be described thus: cell-based or functional assay. This is another data set of the same source.
Test [16] has as its target T4, VH3VL1-CD8ATD-CD137CSD-CD3zSSD fusion. In words: cell-based or functional assay. This is another data set of the same source.

T3 sequence (chain, as listed by the source): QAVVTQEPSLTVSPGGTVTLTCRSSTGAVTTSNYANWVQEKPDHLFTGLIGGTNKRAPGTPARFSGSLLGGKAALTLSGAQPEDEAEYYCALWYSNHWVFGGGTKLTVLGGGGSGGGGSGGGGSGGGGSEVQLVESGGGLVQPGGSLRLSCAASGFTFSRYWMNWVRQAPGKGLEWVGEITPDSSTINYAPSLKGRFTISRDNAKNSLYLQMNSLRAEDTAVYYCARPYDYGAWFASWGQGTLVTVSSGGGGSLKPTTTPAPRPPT
T4 sequence (chain, as listed by the source): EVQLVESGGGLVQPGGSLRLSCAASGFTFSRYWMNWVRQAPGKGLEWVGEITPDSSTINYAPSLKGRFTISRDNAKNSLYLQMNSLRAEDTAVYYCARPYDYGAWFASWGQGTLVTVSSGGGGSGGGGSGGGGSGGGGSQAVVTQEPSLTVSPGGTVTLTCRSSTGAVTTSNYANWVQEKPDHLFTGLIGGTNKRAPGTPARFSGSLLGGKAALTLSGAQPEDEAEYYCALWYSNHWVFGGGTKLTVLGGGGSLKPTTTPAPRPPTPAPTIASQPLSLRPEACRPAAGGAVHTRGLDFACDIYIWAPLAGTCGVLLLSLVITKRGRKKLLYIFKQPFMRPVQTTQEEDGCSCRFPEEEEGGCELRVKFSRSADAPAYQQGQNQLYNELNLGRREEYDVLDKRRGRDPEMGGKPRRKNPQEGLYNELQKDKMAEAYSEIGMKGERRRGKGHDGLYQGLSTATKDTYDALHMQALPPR
T2 sequence (chain, as listed by the source): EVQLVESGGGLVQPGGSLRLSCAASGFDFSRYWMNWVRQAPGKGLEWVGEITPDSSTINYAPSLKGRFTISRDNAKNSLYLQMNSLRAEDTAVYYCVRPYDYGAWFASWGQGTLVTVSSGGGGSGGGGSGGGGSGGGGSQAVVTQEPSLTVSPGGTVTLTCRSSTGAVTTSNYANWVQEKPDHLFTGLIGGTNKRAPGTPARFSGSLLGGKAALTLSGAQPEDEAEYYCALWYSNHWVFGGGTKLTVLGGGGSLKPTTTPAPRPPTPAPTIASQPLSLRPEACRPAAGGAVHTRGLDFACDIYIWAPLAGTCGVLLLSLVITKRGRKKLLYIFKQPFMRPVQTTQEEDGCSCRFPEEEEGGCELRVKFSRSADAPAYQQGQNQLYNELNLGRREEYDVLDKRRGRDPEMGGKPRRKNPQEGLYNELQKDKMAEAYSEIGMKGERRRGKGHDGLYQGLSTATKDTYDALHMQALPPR
T1 sequence (chain, as listed by the source): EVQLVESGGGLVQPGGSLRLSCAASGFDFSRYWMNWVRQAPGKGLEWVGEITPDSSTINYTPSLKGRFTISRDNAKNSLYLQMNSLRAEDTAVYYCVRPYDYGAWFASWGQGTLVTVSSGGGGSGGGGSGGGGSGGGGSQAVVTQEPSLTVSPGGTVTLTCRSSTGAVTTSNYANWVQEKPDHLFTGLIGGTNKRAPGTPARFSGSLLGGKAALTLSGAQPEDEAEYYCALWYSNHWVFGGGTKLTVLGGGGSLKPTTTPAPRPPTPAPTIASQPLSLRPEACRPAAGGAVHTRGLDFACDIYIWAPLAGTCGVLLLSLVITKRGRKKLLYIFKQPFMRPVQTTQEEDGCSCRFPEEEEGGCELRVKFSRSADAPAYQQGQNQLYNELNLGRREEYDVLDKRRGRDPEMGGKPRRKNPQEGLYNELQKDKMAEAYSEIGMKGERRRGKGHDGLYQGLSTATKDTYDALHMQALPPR

B1: anti-CD20 (GA101) wild type IgG1 (antibody)
heavy: not shown
light: DIVMTQTPLSLPVTPGEPASISCRSSKSLLHSNGITYLYWYLQKPGQSPQLLIYQMSNLVSGVPDRFSGSGSGTDFTLKISRVEAEDVGVYYCAQNLELPYTFGGGTKVEIKRTVAAPSVFIFPPSDEQLKSGTASVVCLLNNFYPREAKVQWKVDNALQSGNSQESVTEQDSKDSTYSLSSTLTLSKADYEKHKVYACEVTHQGLSSPVTKSFNRGEC
notes: also called GA101 Fc wildtyp
Take B1: the binding result in test [1], in test [2], in test [3] and in [4] was “no binding (tested: 67 nM)” in each case. For the same molecule, the “EC50 printed in the drawn table (row 'VH1 x VL1') for the Jurkat NFAT reporter assay with WSUDLCL2 cells; it is a fit of a flat curve at background and no activation is seen” value in test [5] was roughly 2.19 pM. Besides, the “EC50 printed in the drawn table (row 'VH2 x VL1') for the Jurkat NFAT reporter assay with WSUDLCL2 cells; it is a fit of a flat curve at background and no activation is seen” value in test [6] came out at 0.000119 pM. For the same molecule, the “EC50 printed in the drawn table (row 'VL1 x VH 3') for the Jurkat NFAT reporter assay with WSUDLCL2 cells; it is a fit of a flat curve at background and no activation is seen” value in [7] was roughly 78.3 pM. The “EC50 printed in the drawn table (row 'VH3 x VL1') for the Jurkat NFAT reporter assay with WSUDLCL2 cells; it is a fit of a flat curve at background and no activation is seen” value in test [8] is roughly 85 pM.

B2: anti-CD20 (GA101) LALA IgG1 (antibody)
heavy: not shown
light: B1 light
On to B2, for which the binding result in test [9], in [10], in test [11] and in [12] was “no binding (tested: 67 nM)” each time. Also, the “EC50 printed in the drawn table (row 'VH1 x VL1') for the Jurkat NFAT reporter assay with WSUDLCL2 cells; it is a fit of a flat curve at background and no activation is seen” value in test [13] is roughly 0.0485 pM. Besides, the “EC50 printed in the drawn table (row 'VH2 x VL1') for the Jurkat NFAT reporter assay with WSUDLCL2 cells; it is a fit of a flat curve at background and no activation is seen” value in test [14] is roughly 0 nM. In test [15], the “EC50 printed in the drawn table (row 'VL1 x VH 3') for the Jurkat NFAT reporter assay with WSUDLCL2 cells; it is a fit of a flat curve at background and no activation is seen” value is roughly 0.000234 pM. Also, the “EC50 printed in the drawn table (row 'VH3 x VL1') for the Jurkat NFAT reporter assay with WSUDLCL2 cells; it is a fit of a flat curve at background and no activation is seen” value in test [16] is roughly 1.61e+07 mM.
